The assay addresses T1, CD122/CD132 heterodimer (human, UniProt P14784 27-239; P31785 23-262).
T1 construct: Bought from ACROBIO as 'AVT-TAG CD122/CD132 heterodimer'; also called AVT-TAG CD122/CD132 heterodimer; IL-2Rβ/γ complex
T1 sequence 1: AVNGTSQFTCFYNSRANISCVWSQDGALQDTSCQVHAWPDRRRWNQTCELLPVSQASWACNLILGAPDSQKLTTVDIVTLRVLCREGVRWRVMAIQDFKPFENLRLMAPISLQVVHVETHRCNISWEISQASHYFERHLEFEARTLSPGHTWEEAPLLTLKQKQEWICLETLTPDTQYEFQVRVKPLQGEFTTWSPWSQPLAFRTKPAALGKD
T1 sequence 2: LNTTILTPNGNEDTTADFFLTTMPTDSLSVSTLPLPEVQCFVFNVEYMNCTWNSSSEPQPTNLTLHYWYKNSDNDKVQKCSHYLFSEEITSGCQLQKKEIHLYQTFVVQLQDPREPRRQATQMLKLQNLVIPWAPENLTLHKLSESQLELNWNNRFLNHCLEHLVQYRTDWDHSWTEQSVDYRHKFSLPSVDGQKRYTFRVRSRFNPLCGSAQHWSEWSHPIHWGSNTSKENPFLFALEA
The assay can be described thus: BLI (OCTET RED96), receptor on biosensor, IL-2 in solution at 10-2,000 nM, 24 C. How it is done: OCTET® RED96 was used to characterize the interactions of wild-type hL-2 and hhL-2 muteins with CD25, CD122, or CD122/CD132 heterodimer. AVT-TAG CD122/CD132 heterodimer was purchased from ACROBIO. The protein samples were diluted in the OCTET® kinetic buffer. […] The biosensor was then dipped into a solution containing a wild-type hL-2 and IL-2 muteins at 10 to 2,000 nM at 24° C. The association and dissociation sensorgraph was fitted by global or local fitting using the OCTET® Data Analysis HT software.

B1: IL-2-IL-15 Chimera 65 (T3A, I92A, C125S, Q126E) (ligand)
chain: APASSSTKKTQLQLEHLLLDLQMILNGIQSMEIDATTFKFYMPKKATELKHLQCLEEELKPLEEVLNLAQSKNFHLRPRDLISNINVAVLELKGSETTFMCEYADETATIVEFLNRWITFSESIISTLT
On to B1, for which binding was put at a Kd of 242 nM. This lies in the sub-micromolar range.

As usually defined, the Kd is a measure of binding affinity in units of concentration. Higher therefore signals weaker binding.

Source of the values: patent US20250122285A1 (ANWITA BIOSCIENCES, published 2025).
